{"source": "patent US9289490B2", "about": "“Combinations and uses thereof” (MORPHOSYS AG, priority 2010, dated 2016)", "key": {"AMO-1 cells": {"tested_on": "AMO-1 cells", "experiment": "ADCC with human PBMCs, flow cytometry (CalceinAM/PI)", "format": "cell-based", "method": "For Tables 3b-c, “Theoretical Combination” represents the addition of the values of MOR202 alone and the values of LEN alone. The normalized data of Table 3b is calculated as follows. Therefore, the specific killing values of Table 3b are calculated by subtracting the values of the controls. Then the specific killing values are compared to the MOR202 group, which is set as 1.\nThe constant m determines the shape of the dose-effect curve. We used Excel Fit software to carry out a linear regression calculation to estimate the parameters m and D50.\nThe CI-isobol method provides a quantitative assessment of synergism between drugs. A combination index (CI) is estimated from dose-effect data of single and combined drug treatments. […] Formally, the combination index (CI) of a combined drug treatment is defined as CI=D1/Dx1+D2/Dx2\nThe data is analysed in the following way: Antagonistic(AB)/C<(A/C)×(B/C) Additive(AB)/C=(A/C)×(B/C) Synergistic(AB)/C>(A/C)×(B/C) where A is the treatment with LEN alone; B is the treatment with MOR202 alone; C is response to the treatment vehicle; AB is combination of treatments A and B."}, "[1]": {"tested_on": "NCI-H929 human multiple myeloma cells", "experiment": "NCI-H929 bone lysis SCID mouse MM model, MOR202 and LEN (MicroCT)", "format": "in vivo, SCID mice", "parameters": "Trabecular Bone Volume (Tb · BV), individual mouse / Trabecular Bone Volume (Tb · BV), Mean: unit not given here", "method": "63 SCID mice were inoculated on Day (−7) orthotopically into the right tibia with 2.5×10^6 NCI-H929 MM cells (in 5 μL) in order to induce bone lysis. Lenalidomide (Groups A and D) and Vehicle Control (Group C) treatments started on Day (−1). MOR202 treatments (Groups B and D) started on Day 0. Treatment continued for 6 weeks.\nMicroCT Scan was used to assess bone lysis and included […] analysis comprising Total Bone Volume (TBV), Trabecular Bone Volume (Tb.BV), Trabecular Pattern Factor (Tb.Pf) and Structure Model Index (SMI). Table 10 defines each of these parameters."}, "RAMOS cells [2]": {"tested_on": "RAMOS cells", "experiment": "RAMOS non-Hodgkin tumor SCID mouse survival model, MOR202 and lenalidomide", "format": "in vivo, SCID mice", "method": "Sixty-eight female SCID mice were pre-treated with Cyclophosphamide (75 mg/kg, i.p., twice daily) for two days prior to RAMOS cell inoculation (Day −5 and −4). On the day of inoculation (Day −3), all mice were inoculated with 1×10^6 RAMOS cells each intravenously into the tail vein. Sixty-four of the mice were randomised by body weight into eight groups of eight.\nThe study continued for 98 days and the measured endpoint was survival."}, "NCI-H929 MM cells": {"tested_on": "NCI-H929 MM cells", "experiment": "NCI-H929 bone lysis SCID mouse model, MOR202 and BOR (MicroCT)", "format": "in vivo, SCID mice", "parameters": "Trabecular Bone Volume (Tb · BV), individual mouse / Trabecular Bone Volume (Tb · BV), Average: unit not given here", "description": "63 SCID mice were inoculated on Day (−7) intra-tibially with 2.5×10^6 NCI-H929 MM cells in order to induce bone lysis. Bortezomib (Groups A and AB) and Vehicle Control (Group C) treatments started on Day (−1). MOR202 treatments (Groups B and AB) started on Day 0. Treatment continued for 6 weeks.\nMicroCT Scan was used to assess bone lysis and included a 3-dimensional analysis comprising Total Bone Volume (TBV), Trabecular Bone Volume (Tb.BV), Trabecular Pattern Factor (Tb.Pf) and Structure Model Index (SMI). Table 10 above defines each of these parameters."}, "RAMOS cells [3]": {"tested_on": "RAMOS cells", "details": "BOR 0.6 mg/kg i.p., MOR202 1 mg/kg i.v.", "protocol": "Fifty-five female SCID mice were pre-treated with Cyclophosphamide (75 mg/kg, i.p., twice daily) for two days prior to RAMOS cell inoculation (Day −5 and −4). On the day of inoculation (Day −3), all fifty-five mice were inoculated with 1×10^6 RAMOS cells each (in 100 μL) intravenously into the tail vein. Forty-eight of the mice were randomised by body weight into six groups of eight."}, "NCI-H929 cells": {"tested_on": "NCI-H929 cells", "experiment": "ADCC with human PBMCs, flow cytometry (CalceinAM/PI)", "details": "LEN 5 μM", "protocol": "PBMC's were isolated by density gradient centrifugation of freshly isolated human blood. Isolated blood from different donors were layered on a defined volume of Biocoll (Biochrome AG; CAT No.:L6115; LOT No.:1050T) in a Falcon tube and centrifuged at 380 g. The PBMCs were isolated and supplemented with RPMI medium.\nCell suspensions were further incubated for 4 h at 37° C. To detect dead AMO-1 cells, cell suspensions were challenged with propidium iodide (PI) and subsequently analyzed in flow cytometry. Target cells were separated via gating of CalceinAM positive cell populations, and cells killed via ADCC were quantified.\nSingle and combination doses of 5 μM LEN and 15 μg/ml of MOR03207 and 0.2 or 0.07 μg/ml MOR202 were used.\nSingle and combination doses of 5 μM LEN and 15 μg/ml of MOR03207 and 0.2* or 0.07 μg/m MOR202 were used."}, "[4]": {"details": "LEN 50 mg/kg p.o. once daily, MOR202 3 mg/kg i.p. 3 times weekly, 6 weeks, lower = less bone lysis, listed as MOR03087"}, "[5]": {"details": "group mean of 10 mice, LEN 50 mg/kg p.o., MOR202 3 mg/kg i.p., 6 weeks"}, "[6]": {"details": "Bortezomib 0.6 mg/kg i.p. twice per week, MOR202 3 mg/kg i.p. three times per week, 6 weeks, lower = less bone lysis"}, "[7]": {"details": "group average of 10 mice, Bortezomib 0.6 mg/kg i.p., MOR202 3 mg/kg i.p., 6 weeks"}}, "note": "“And” between values parts separate entries of the source, which are not always exact repeats. Equal entries are not always repeated. Where two headings read alike, the source gives them in different places. Marks after values point to notes of the source that are not given here."}
{"molecule": "MOR202: anti-CD38 antibody whose amino acid sequence is provided in FIG. 11; IgG1 (antibody, V domains shown) VH: QVQLVESGGGLVQPGGSLRLSCAASGFTFSSYYMNWVRQAPGKGLEWVSGISGDPSNTYYADSVKGRFTISRDNSKNTLYLQMNSLRAEDTAVYYCARDLPLVYTGFAYWGQGTLVTVSS VL: DIELTQPPSVSVAPGQTARISCSGDNLRHYYVYWYQQKPGQAPVLVIYGDSKRPSGIPERFSGSNSGNTATLTISGTQAEDEADYYCQTYTGGASLVFGGGTKLTVLGQ", "values": [{"measurement": "Normalized specific killing, MOR202 treatment group set as 1 (Table 3b)", "setting": "AMO-1 cells; PBMCs and AMO-1 cells treated with LEN, LEN 10 μM, MOR202 and MOR03207 15 μg/ml, controls subtracted, Exp. 1-3", "result": 1.0}, {"measurement": "Normalized specific killing, theoretical combination set as 1 (Table 3c)", "setting": "AMO-1 cells; PBMCs and AMO-1 cells treated with LEN, MOR202 0.42 μg/ml, LEN 5 μM, Experiment 1-3", "result": "0.9 and 0.6"}, {"measurement": "Normalized specific killing, theoretical combination set as 1, AVERAGE (Table 3c)", "setting": "AMO-1 cells; PBMCs and AMO-1 cells treated with LEN, MOR202 0.42 μg/ml, LEN 5 μM, average of 3 experiments", "result": 0.8}, {"measurement": "Normalized specific killing, MOR202 treatment group set as 1 (Table 4b)", "setting": "AMO-1 cells; only effector cells treated with LEN, LEN 10 μM, MOR202 and MOR03207 15 μg/ml, Exp. 1-3", "result": 1.0}, {"measurement": "Normalized specific killing, theoretical combination set as 1 (Table 4c)", "setting": "AMO-1 cells; only effector cells treated with LEN, MOR202 0.42 μg/ml, LEN 5 μM, Experiment 1-3", "result": "0.8 and 1.2 and 0.7"}, {"measurement": "Normalized specific killing, theoretical combination set as 1, AVERAGE (Table 4c)", "setting": "AMO-1 cells; only effector cells treated with LEN, MOR202 0.42 μg/ml, LEN 5 μM, average of 3 experiments", "result": 0.9}, {"measurement": "Structure Model Index (SMI), individual mouse", "setting": "[1]; [4]", "result": "2.386 and 1.818 and 2.423 and 2.450 and 1.860 and 2.461 and 2.558 and 2.247 and 2.318 and 2.275"}, {"measurement": "Trabecular Pattern Factor (Tb · Pf), individual mouse", "setting": "[1]; [4]", "result": "27.049 mm^−1 and 15.631 mm^−1 and 27.631 mm^−1 and 27.523 mm^−1 and 17.887 mm^−1 and 21.405 mm^−1 and 26.345 mm^−1 and 20.327 mm^−1 and 25.843 mm^−1 and 22.402 mm^−1"}, {"measurement": "Structure Model Index (SMI), Mean", "setting": "[1]; [5]", "result": 2.28}, {"measurement": "Total Bone Volume (TBV), Mean", "setting": "[1]; [5]", "result": 2.467, "unit": "mm^3"}, {"measurement": "Trabecular Bone Volume (Tb · BV), Mean", "setting": "[1]; [5]", "result": 0.323}, {"measurement": "Trabecular Pattern Factor (Tb · Pf), Mean", "setting": "[1]; [5]", "result": 23.204, "unit": "mm^−1"}, {"measurement": "Structure Model Index (SMI), Mean", "setting": "[1]; group mean of 10 mice, LEN 50 mg/kg p.o., MOR202 3 mg/kg i.p., 6 weeks, listed as MOR03087", "result": 2.280}, {"measurement": "Reduction of bone lysis compared to vehicle control", "setting": "[1]; non-inoculated tibia = 0%, vehicle = 100% bone lysis, MOR202 alone 12 mg/kg, LEN alone 50 mg/kg, combination 3 mg/kg MOR202 and 50 mg/kg LEN", "result": "up to 55%"}, {"measurement": "Number of mice alive at study termination (day 98)", "setting": "RAMOS cells [2]; LEN 100 mg/kg (Table 14) p.o., MOR202 1 mg/kg i.v.", "result": "0/8"}, {"measurement": "Day of death (post-inoculation) Mean", "setting": "RAMOS cells [2]; LEN 100 mg/kg (Table 14) p.o., MOR202 1 mg/kg i.v. twice weekly, study 98 days", "result": 49.6, "unit": "days"}, {"measurement": "% ILS (based on median death day)", "setting": "RAMOS cells [2]; LEN 100 mg/kg (Table 14) p.o., MOR202 1 mg/kg i.v., vs vehicle control", "result": 155, "unit": "%"}, {"measurement": "Day of death (post-inoculation) Median", "setting": "RAMOS cells [2]; LEN 100 mg/kg (Table 14; Table 13: 50 mg/kg) p.o. once daily, MOR202 1 mg/kg i.v. twice weekly, study 98 days", "result": 51, "unit": "days"}, {"measurement": "Structure Model Index (SMI), individual mouse", "setting": "NCI-H929 MM cells; [6]", "result": "2.546 and 2.079 and 2.296 and 2.429 and 1.871 and 2.193 and 2.368 (2×) and 2.436 and 2.511"}, {"measurement": "Trabecular Pattern Factor (Tb · Pf), individual mouse", "setting": "NCI-H929 MM cells; [6]", "result": "27.363 mm^−1 and 19.479 mm^−1 and 21.858 mm^−1 and 23.814 mm^−1 and 16.347 mm^−1 and 19.748 mm^−1 and 25.212 mm^−1 and 21.276 mm^−1 and 24.031 mm^−1 and 25.056 mm^−1"}, {"measurement": "Structure Model Index (SMI), Average", "setting": "NCI-H929 MM cells; [7]", "result": 2.31}, {"measurement": "Total Bone Volume (TBV), Average", "setting": "NCI-H929 MM cells; [7]", "result": 1.988, "unit": "mm^3"}, {"measurement": "Trabecular Bone Volume (Tb · BV), Average", "setting": "NCI-H929 MM cells; [7]", "result": 0.296}, {"measurement": "Trabecular Pattern Factor (Tb · Pf), Average", "setting": "NCI-H929 MM cells; [7]", "result": 22.418, "unit": "mm^−1"}, {"measurement": "Reduction of bone lysis compared to vehicle control", "setting": "NCI-H929 MM cells; non-inoculated tibia = 0%, vehicle = 100% bone lysis, MOR202 alone 12 mg/kg, BOR alone 0.6 mg/kg, combination 3 mg/kg MOR202 and 0.6 mg/kg BOR", "result": "up to 55%"}, {"measurement": "Number of mice alive at study termination (day 98)", "setting": "RAMOS cells [3]", "result": "0/8"}, {"measurement": "Day of death (post-inoculation) Mean", "setting": "RAMOS cells [3]; study 98 days", "result": 43.6, "unit": "days"}, {"measurement": "Day of death (post-inoculation) Median", "setting": "RAMOS cells [3]; study 98 days", "result": 43.5, "unit": "days"}, {"measurement": "% ILS (based on median death day)", "setting": "RAMOS cells [3]; vs vehicle control", "result": 112, "unit": "%"}, {"measurement": "% dead cells (raw data, Table 7a), Exp. 2 and 3", "setting": "NCI-H929 cells; PBMCs and NCI-H929 cells treated with LEN before MOR202, MOR202 0.07 μg/ml, MOR03207 15 μg/ml", "result": "32.54 % dead cells and 43.08 % dead cells"}, {"measurement": "% dead cells (raw data, Table 7a), Exp. 1", "setting": "NCI-H929 cells; PBMCs and NCI-H929 cells treated with LEN before MOR202, MOR202 0.2 μg/ml (*), MOR03207 15 μg/ml", "result": "30.64* % dead cells"}, {"measurement": "Normalized specific killing, fractional product combination set as 1 (Table 7b), Exp. 2 and 3", "setting": "NCI-H929 cells; PBMCs and NCI-H929 cells treated with LEN, MOR202 0.07 μg/ml", "result": "0.45 and 0.58"}, {"measurement": "Normalized specific killing, fractional product combination set as 1 (Table 7b), Exp. 1", "setting": "NCI-H929 cells; PBMCs and NCI-H929 cells treated with LEN, MOR202 0.2 μg/ml (*)", "result": "0.42*"}, {"measurement": "Normalized specific killing, AVERAGE (Table 7b)", "setting": "NCI-H929 cells; PBMCs and NCI-H929 cells treated with LEN, MOR202 0.2 or 0.07 μg/ml, average of 3 experiments", "result": 0.48}, {"measurement": "% dead cells (raw data, Table 8a), Exp. 2 and 3", "setting": "NCI-H929 cells; only effector cells treated with LEN before MOR202, MOR202 0.07 μg/ml, MOR03207 15 μg/ml", "result": "53.74 % dead cells and 47.00 % dead cells"}, {"measurement": "% dead cells (raw data, Table 8a), Exp. 1", "setting": "NCI-H929 cells; only effector cells treated with LEN before MOR202, MOR202 0.2 μg/ml (*), MOR03207 15 μg/ml", "result": "26.60* % dead cells"}, {"measurement": "Normalized specific killing, fractional product combination set as 1 (Table 8b), Exp. 2 and 3", "setting": "NCI-H929 cells; only effector cells treated with LEN, MOR202 0.07 μg/ml", "result": "0.97 and 0.91"}, {"measurement": "Normalized specific killing, fractional product combination set as 1 (Table 8b), Exp. 1", "setting": "NCI-H929 cells; only effector cells treated with LEN, MOR202 0.2 μg/ml (*)", "result": "1.09*"}, {"measurement": "Normalized specific killing, AVERAGE (Table 8b)", "setting": "NCI-H929 cells; only effector cells treated with LEN, MOR202 0.2 or 0.07 μg/ml, average of 3 experiments", "result": 0.99}]}
